Measurements taken from the supplement of paper PMC12764529.
± gives the half width of the 95% confidence interval.

How the values were obtained:
[1] = folding stability dG unfold (combined trypsin and chymotrypsin); higher = more stable
Outline: (§1)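 Designed mini-proteins (under 80 residues, no cysteine) in a PA-tagged cDNA display construct were digested with trypsin and chymotrypsin. Each protease was used at 11 concentrations (threefold dilutions) plus a no-protease condition, followed by sequencing. K50 was inferred by Bayesian fitting of sequencing counts, and unfolding free energy was derived against a sequence-predicted unfolded-state K50 and a shared folded-state K50, per protease or combined. Only designs with AlphaFold2 dimer inter-PAE above 15 were kept.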

[2] = folding stability dG unfold from trypsin proteolysis; higher = more stable
Outline: as §1

[3] = folding stability dG unfold from chymotrypsin proteolysis; higher = more stable
Outline: as §1

| Sequence | folding stability dG unfold [1] | folding stability dG unfold [2] | folding stability dG unfold [3] |
| --- | --- | --- | --- |
| SAGGSAGGSAGMVVETSKNPPTSDTVVTTLVPSPNSTTVTTTIVSPDPNTIKETTTTPTPSAGGSAGGSAGG [r11_100_JUSTAS] | 1.8 ± 0.034 kcal/mol | 2.41 ± 0.064 kcal/mol | 1.23 ± 0.019 kcal/mol |
| SAGGSAGGSKKKKKKIKIKIVVNEDELAKKLGLSKEEVRKLAKELADELKKKGYEVEIEIIPPSAGGSAGGS [r12_576_TrROS_Hall] | 2.89 ± 0.054 kcal/mol | 1.87 ± 0.049 kcal/mol | 3.29 ± 0.054 kcal/mol |
| SAGGPPEGEKKKFRIDDVQPMPNPNGYFMVQIRYNDKPVSSIPIPPNNLDKLANDLPPGMEVEIYPFSAGGS [r8_41_TrROS] | 0.369 ± 0.21 kcal/mol | 0.06 ± 0.11 kcal/mol | 0.511 ± 0.19 kcal/mol |
| SAGGSAGGSAGGSGAGTLITVTVGGKEVPVTVDPSSDRVSITLPEPTSLTLSVEDPARASAGGSAGGSAGGS [r10_1185_JUSTAS] | 0.208 ± 0.17 kcal/mol | 0.593 ± 0.1 kcal/mol | -0.602 ± 0.3 kcal/mol |
| SAGGSAGGMVYITVDIKKTDPLNGTEREEVITVKVNPDEVEKVIEELKSAPVNVEILKVTIIPPSAGGSAGG [r6_151_JUSTAS] | 1.56 ± 0.065 kcal/mol | 1.75 ± 0.075 kcal/mol | 1.4 ± 0.043 kcal/mol |
| SAGGSAGGSAGPWVWIIMIHMEIERVTVEVRPDPDGKWEYKLEITIKIEIHIIPLPPGATSAGGSAGGSAGG [r11_24_TrROS] | 5.26 ± 0.17 kcal/mol | 3.55 ± 0.15 kcal/mol | 5.37 ± 0.11 kcal/mol |
| SAGGSAGGSAGGLGPDEKPKVKYLALIYDPETGEVTVVPADKLDKVLKETDASVSLFPVSAGGSAGGSAGGS [r10_1121_TrMRF] | 0.565 ± 0.2 kcal/mol | 0.351 ± 0.1 kcal/mol | 0.401 ± 0.1 kcal/mol |
| SAGMKYRIVIENENGEKIEFEKLEDGTIKMTIEKDGKKEEITIKVPPGMTIEELLKKFPNAKIVKIEKVSAG [r5_259_TrROS_Hall] | 3.23 ± 0.096 kcal/mol | 2.78 ± 0.069 kcal/mol | 3.45 ± 0.065 kcal/mol |
| PPGYRPIEIEIPMKVESIEEAKEEVLNFAHELAEAFPNITDINVEVDKIDPNNGYIFAKITIYVGDKTITIS [r1_52_TrROS] | 1.8 ± 0.43 kcal/mol | 0.424 ± 0.13 kcal/mol | 2.04 ± 0.081 kcal/mol |
| SAGGSASIEIPFNGHPYKIEIDDVEPPDEQYRAKAEIRFPGNGKKIPVEGDMPKSDAEDAIKEAIRSAGGSA [r15_944_TrROS] | 0.362 ± 0.25 kcal/mol | -0.527 ± 0.19 kcal/mol | 0.49 ± 0.16 kcal/mol |
| SAGGSAMPPVKVEVVEAEPFVVEGEGGLYLVRPFLVRAPDLPRLFLVVLVEDPGEPDVLAEVFDLDSAGGSA [r15_528_TrMRF] | 2.37 ± 0.099 kcal/mol | 1.84 ± 0.041 kcal/mol | 2.55 ± 0.045 kcal/mol |
| SAGSMVEERVRELLRELDPERPWEIERLPDGTIVARDPETGRWYIFKVEPDGTVTLERVLSLEEYERLSSAG [r5_852_JUSTAS] | 4.42 ± 0.11 kcal/mol | 3.37 ± 0.075 kcal/mol | 4.78 ± 0.076 kcal/mol |
| SAGGSAGGPFKIKITEIFLIPFEPGEMIMIEIRFPNGKVYYIMLQVNPGNGWIWIAIMEIKPPDSAGGSAGG [r6_337_TrROS] | 4.74 ± 0.33 kcal/mol | 3.91 ± 0.35 kcal/mol | 5.1 ± 0.12 kcal/mol |
| SAGGSAGGSMKIRIERTPDKLTIMIPPDNPDKIKNIIDNFGYPITDVKVTQNPPGMHMIEIPLSAGGSAGGS [r12_493_TrROS] | 1.51 ± 0.19 kcal/mol | 1.58 ± 0.095 kcal/mol | 1.47 ± 0.082 kcal/mol |
| SAGGSAGGSAGGKKKIKVKVTVYNKNGKPVAEFEFEFETEEEALEAAKKLGLPVRVEKESAGGSAGGSAGGS [r10_958_TrROS_Hall] | 2.28 ± 0.15 kcal/mol | 1.71 ± 0.11 kcal/mol | 2.57 ± 0.069 kcal/mol |
| SAGGSAGGSAMPVIELTIKVKTKEEAKKAAEELAKKLEEEFGLKVEVEYDEETKEVKVKIYPSAGGSAGGSA [r18_368_TrROS_Hall] | 2.07 ± 0.089 kcal/mol | 2.25 ± 0.12 kcal/mol | 1.79 ± 0.068 kcal/mol |
| SAGGEDGKWREQTFTIENPEDGKKAKIEIEYNPENGYASIEFPGNGKKIDVPFKSLEDILDAIKKIGISAGG [r13_439_TrROS] | 0.0961 ± 0.12 kcal/mol | -0.02 ± 0.074 kcal/mol | 0.0872 ± 0.16 kcal/mol |
| SAGGMPVPVKIEIIDDPGTLIITTPNGKPYTIPIPPNSIEEITIDPEKKVIKIKLKDGEIIIDVPDGSAGGS [r16_104_TrMRF] | 1.88 ± 0.11 kcal/mol | 1.62 ± 0.072 kcal/mol | 1.87 ± 0.038 kcal/mol |
| NKIEIKAYKIEETGEIIVEVKIEFPVYDPETKTIKPVVLTITFVGDPEKAIEAIKKFVDFYGGEIDYIDFGS [r1_488_TrMRF] | 4.36 ± 0.1 kcal/mol | 2.84 ± 0.099 kcal/mol | 4.5 ± 0.091 kcal/mol |
| SAGGSAGGSAMTLKEKAEAIEKEKGVKITVTVTYPDGTVRTLTPEELSSIPPGPYTLSFTTPSAGGSAGGSA [r18_394_JUSTAS] | 1.67 ± 0.099 kcal/mol | 1.73 ± 0.023 kcal/mol | 1.44 ± 0.16 kcal/mol |
| SAGGSAGGSSLTVTYDPSTGTLTITVPEDQTSVKIKYGDKTYTVPLPPGQTFTVPANTFTLESSAGGSAGGS [r20_26_TrMRF] | 1.29 ± 0.11 kcal/mol | 0.745 ± 0.071 kcal/mol | 1.54 ± 0.08 kcal/mol |
